Experimental data: patent US20150337031A1 (CELYAD S A, published 2015)

What was measured:
[1] = biological target: T1, Mutated peptide on Aa L (8th position); assay: ELISA on coated mutant peptide, relative quantification against a standard curve of the wild-type peptide
T1 peptide: GNPNLLPAAHPSL
Experimental: (§1) ELISA was performed to map the epitope of the test antibody. The peptides were coated in 96-well microtiter plates at 4° C. for 16 h. The plates were then blocked with 5% MPBS at 37° C. for 2 h. After washed with PBS-T, 100 μl target/control antibody (0.5 μg/ml) was added and incubated at 37° C. for 2 h. The plates were washed with PBS-T and incubated with 100 μl of 0.1 μg/ml goat anti-mouse IgG (H+L) at 37° C. for 1 h. The plates were washed with PBS-T and incubated with rabbit anti goat IgG (H+L) [HRP] at 37° C. for 1 h. After washing the plate with PBS-T, the color was developed with 100 μl TMB substrate for 10 minutes. The reaction was stopped by adding 100 μl of 1 M HCl and the absorbance was measured at 450 nm using a spectrometer. […] A non-coated well was set as blank control and the peptide library incubated with the detection antibodies only was set as the negative control.
(§2) In addition to the alanine scanning, a relative quantification of binding was performed. Each of the mutated peptides was assayed in direct ELISA according to the procedures described above and compared to a standard curve performed with the wild-type peptide. Relative binding quantification was then performed as described previously. […] Therefore, considering the combination of the data obtained in FIGS. 7 and 8 an epitope target of the anti-MEF2C mAb is the following amino acid sequence: […]

[2] = biological target: T2, Mutated peptide on Aa L (6th position); assay: as above
T2 peptide: GNPNLAPLAHPSL
Experimental: as §1, §2

[3] = biological target: T3, 13 amino acid sequence from human MEF2C (SEQ ID NO: 2), GNPNLLPLAHPSL (human); assay: SPR, BIAcore T200, antibody coupled to CM5 chip, peptide injected, 1:1 model
T3 construct: Synthetic peptide (GenScript); Coated on the plate in ELISA, injected over the immobilised antibody in Biacore; also called wild-type peptide; antigen peptide
T3 peptide: GNPNLLPLAHPSL
Experimental: (§3) Affinity of the antibody for the peptide was measured by using BIAcoreT200. After covalent coupling of the antibody onto the Series S Sensor Chip CM5, different concentrations (0.078, 0.781, 1.563, 3.125 and 6.250 μM) of peptide were injected serially over the antibody and blank flow cell at a flow rate of 30 μl/min. Association and dissociation phases were monitored for 30 and 150 seconds, respectively. Peptide with the concentration of 6.250 μM was set as repetition. The antibody surface was regenerated with 10 mM Glycine-HCl, pH2.0, 30 s injections 1 time.
(§4) About 10000 RU of antibody was immobilized on the sensor chip via primary amine groups. Binding data was processed, double referenced with response from blank injections, and fit to a 1:1 interaction model using the BIAcore T200 evaluation software.

[4] = biological target: T3, 13 amino acid sequence from human MEF2C …; assay: SPR, BIAcore T200, calculated as the inverse of Kd
Experimental: as §3, §4

[5] = biological target: T4, alanine scanning mutant of the MEF2C peptide of SEQ ID NO: 2, leucine at position 5 replaced by alanine (human); assay: direct ELISA, relative quantification against a wild-type peptide standard curve (FIG. 8)
T4 construct: Member of the alanine scanning peptide library; also called mutation at peptide position 5
T4 peptide: GNPNALPLAHPSL
Experimental: as §1, §2

[6] = biological target: T5, alanine scanning mutant of the MEF2C peptide of SEQ ID NO: 2, proline at position 3 replaced by alanine (human); assay: as above
T5 construct: Member of the alanine scanning peptide library; also called mutation at peptide position 3
T5 peptide: GNANLLPLAHPSL
Experimental: as §1, §2

[7] = biological target: T6, alanine scanning mutant of the MEF2C peptide of SEQ ID NO: 2, proline at position 7 replaced by alanine (human); assay: as above
T6 construct: Member of the alanine scanning peptide library; also called mutation of the seventh residue; P7
T6 peptide: GNPNLLALAHPSL
Experimental: as §1, §2

[8] = biological target: T7, alanine scanning mutant of the MEF2C peptide of SEQ ID NO: 2, asparagine at position 4 replaced by alanine (human); assay: as above
T7 construct: Member of the alanine scanning peptide library; also called mutation at peptide position 4
T7 peptide: GNPALLPLAHPSL
Experimental: as §1, §2

[9] = biological target: T8, alanine scanning mutant of the MEF2C peptide of SEQ ID NO: 2, asparagine at position 2 replaced by alanine (human); assay: as above
T8 construct: Member of the alanine scanning peptide library; also called mutation at peptide position 2
T8 peptide: GAPNLLPLAHPSL
Experimental: as §1, §2

[10] = biological target: T9, alanine scanning mutant of the MEF2C peptide of SEQ ID NO: 2, glycine at position 1 replaced by alanine (human); assay: as above
T9 construct: Member of the alanine scanning peptide library synthesised by GenScript; also called mutation of the first residue; G1
T9 peptide: ANPNLLPLAHPSL
Experimental: as §1, §2

[11] = biological target: T10, Mutated peptide on Aa H (10th position); assay: indirect ELISA on coated peptide, antibody at 0.5 µg/ml, OD450
T10 peptide: GNPNLLPLAAPSL
Experimental: as §1
(§5) Thirteen mutant peptides were numbered in numerical order and their binding activity with target/control antibodies were determined by indirect ELISA. The non-specific binding between the peptide, the target antibody and rabbit anti-goat IgG [HRP] was determined. The non-specific binding between the peptide, goat anti-mouse IgG and rabbit anti-goat IgG [HRP] was determined as well.

[12] = biological target: T11, Mutated peptide on Aa P (11th position); assay: as above
T11 peptide: GNPNLLPLAHASL
Experimental: as §1, §5

[13] = biological target: T12, Mutated peptide on Aa L (13th position); assay: as above
T12 peptide: GNPNLLPLAHPSA
Experimental: as §1, §5

[14] = biological target: T4, alanine scanning mutant of the MEF2C …; assay: indirect ELISA on coated alanine mutant peptides (FIG. 7)
Experimental: as §1, §5

[15] = biological target: T5, alanine scanning mutant of the MEF2C …; assay: as above
Experimental: as §1, §5

[16] = biological target: T7, alanine scanning mutant of the MEF2C …; assay: as above
Experimental: as §1, §5

[17] = biological target: T8, alanine scanning mutant of the MEF2C …; assay: as above
Experimental: as §1, §5

B1: anti-MEF2C monoclonal antibody produced by the hybridoma cell line deposited with BCCM/LMBP under Accession No. LMBP 9949CB (antibody, V domains shown)
VH: EVQLQQSGPELVKPGASVKISCKASAYSFTGYFMNWVKQSHGKSLEWIGRINPYNGNTFYNQNFKGKATLTVDRSSSTAHMQILSLTSEDSTVYYCGREGATGAMDYWGQGTSVTVLP
VL: DVVMTQTPLSLPVSLGDQASISCRSSQSLVHSNGDTYLHWYLQMPGQSPRLLIYKVSNRFSGVPDRFSGSGSGTDFTLKISRVEAEDLGVYFCSQSTHVPPTFGGGTKLEIK
notes: IgG from a mouse hybridoma (detected with anti-mouse IgG); also called anti-MEF2C mAb; α MEF2C
[1]
  binding result: binds
[2]
  binding result: binds
[3]
  Kd: 157 nM
  koff: 0.00367 s⁻¹
  kon: 23400 M⁻¹ s⁻¹
[4]
  Ka: 6.37e+06 M⁻¹
[5]
  decrease of the binding relative to the wild-type peptide: > 99%
[6]
  decrease of the binding relative to the wild-type peptide: > 99%
[7]
  loss of binding relative to the wild-type peptide: 96.4%
[8]
  decrease of the binding relative to the wild-type peptide: > 99%
[9]
  decrease of the binding relative to the wild-type peptide: > 99%
[10]
  loss of binding relative to the wild-type peptide: 92.9%
[11]
  binding result: binds
[12]
  binding result: binds
[13]
  binding result: binds
[14]
  binding result: no binding (tested: 0.5 µg/ml antibody)
[15]
  binding result: no binding (tested: 0.5 µg/ml antibody)
[16]
  binding result: no binding (tested: 0.5 µg/ml antibody)
[17]
  binding result: no binding (tested: 0.5 µg/ml antibody)
